The supplement of paper PMC9112550, “Optimization of the antimicrobial peptide Bac7 by deep mutational scanning” (BMC Biology, 2022)

Tested on: Escherichia coli TOP10
Experiment: shrunken log2 fold change of peptide-encoding DNA abundance (4.5 h post-induction vs induction); higher = less antimicrobial activity (less host growth inhibition)
Conditions: time post-induction: 4.5 h; library: site-saturation at positions 5, 18, 19, 20
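Also: peptides expressed intracellularly from a pBAD plasmid library in pooled LB shake-flask culture, induced with 0.3% L-arabinose, DNA abundance read by NGS, three biological replicates, DESeq2 with apeglm shrinkage.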

RRIRGRPPRLPRPRPRPDTHPRP
shrunken log2 fold change: -0.156

RRIRGRPPRLPRPRPRPVTDPRP
shrunken log2 fold change: 0.394

RRIRVRPPRLPRPRPRPPDFPRP
shrunken log2 fold change: 0.0119

RRIRHRPPRLPRPRPRPESEPRP
shrunken log2 fold change: -0.00193

RRIRNRPPRLPRPRPRPHYFPRP
shrunken log2 fold change: -0.0132

RRIRYRPPRLPRPRPRPHQFPRP
shrunken log2 fold change: -0.984

RRIRTRPPRLPRPRPRPQLYPRP
shrunken log2 fold change: -0.0657

RRIRTRPPRLPRPRPRPETVPRP
shrunken log2 fold change: 0.0349

RRIRWRPPRLPRPRPRPPMDPRP
shrunken log2 fold change: 0.0637

RRIRWRPPRLPRPRPRPQEFPRP
shrunken log2 fold change: 0.00161

RRIRQRPPRLPRPRPRPFWTPRP
shrunken log2 fold change: -0.166

RRIRIRPPRLPRPRPRPNTIPRP
shrunken log2 fold change: -0.355

RRIRNRPPRLPRPRPRPNRFPRP
shrunken log2 fold change: 0.0252

RRIRNRPPRLPRPRPRPPFSPRP
shrunken log2 fold change: 0.032

RRIRSRPPRLPRPRPRPFLPPRP
shrunken log2 fold change: -0.305

RRIRIRPPRLPRPRPRPDSCPRP
shrunken log2 fold change: -0.972

RRIRYRPPRLPRPRPRPKYEPRP
shrunken log2 fold change: -0.177

RRIRCRPPRLPRPRPRPVAKPRP
shrunken log2 fold change: 0.275

RRIRRRPPRLPRPRPRPHWFPRP
shrunken log2 fold change: -0.198

RRIRIRPPRLPRPRPRPGPDPRP
shrunken log2 fold change: -0.0181

RRIRTRPPRLPRPRPRPDRTPRP
shrunken log2 fold change: -0.442

RRIRLRPPRLPRPRPRPHWVPRP
shrunken log2 fold change: -0.189

RRIRIRPPRLPRPRPRPWAMPRP
shrunken log2 fold change: -0.493

RRIRVRPPRLPRPRPRPFKIPRP
shrunken log2 fold change: -0.342

RRIRDRPPRLPRPRPRPIGPPRP
shrunken log2 fold change: 0.0272

RRIRTRPPRLPRPRPRPIEHPRP
shrunken log2 fold change: 0.0859

RRIRYRPPRLPRPRPRPINVPRP
shrunken log2 fold change: -0.208

RRIRRRPPRLPRPRPRPQYSPRP
shrunken log2 fold change: -0.108

RRIRDRPPRLPRPRPRPPRPPRP
shrunken log2 fold change: 0.616

RRIRNRPPRLPRPRPRPMPKPRP
shrunken log2 fold change: -0.0238

RRIRHRPPRLPRPRPRPSPQPRP
shrunken log2 fold change: -0.358

RRIRYRPPRLPRPRPRPYRFPRP
shrunken log2 fold change: -0.168

RRIRLRPPRLPRPRPRPDQRPRP
shrunken log2 fold change: 0.274

RRIRRRPPRLPRPRPRPDMSPRP
shrunken log2 fold change: -0.433

RRIRVRPPRLPRPRPRPPGTPRP
shrunken log2 fold change: 0.273

RRIRWRPPRLPRPRPRPSDMPRP
shrunken log2 fold change: -0.354

RRIRRRPPRLPRPRPRPEVGPRP
shrunken log2 fold change: 0.946

RRIRDRPPRLPRPRPRPHRTPRP
shrunken log2 fold change: -0.0884

RRIRVRPPRLPRPRPRPNEMPRP
shrunken log2 fold change: 0.0222

RRIRSRPPRLPRPRPRPKGHPRP
shrunken log2 fold change: -0.000921

RRIRKRPPRLPRPRPRPCTGPRP
shrunken log2 fold change: 0.0143

RRIRSRPPRLPRPRPRPTKSPRP
shrunken log2 fold change: 0.0789

RRIRTRPPRLPRPRPRPWFPPRP
shrunken log2 fold change: -0.735

RRIRYRPPRLPRPRPRPQRYPRP
shrunken log2 fold change: -0.771

RRIRYRPPRLPRPRPRPYPTPRP
shrunken log2 fold change: -0.282

RRIRKRPPRLPRPRPRPRRLPRP
shrunken log2 fold change: 0.0159

RRIRTRPPRLPRPRPRPAMDPRP
shrunken log2 fold change: -0.708

RRIRPRPPRLPRPRPRPQWMPRP
shrunken log2 fold change: 0.00643

RRIRMRPPRLPRPRPRPKGRPRP
shrunken log2 fold change: -0.00141

RRIRWRPPRLPRPRPRPPVDPRP
shrunken log2 fold change: 0.494

RRIRHRPPRLPRPRPRPWPFPRP
shrunken log2 fold change: -0.285

RRIRIRPPRLPRPRPRPHVPPRP
shrunken log2 fold change: -0.00519

RRIRDRPPRLPRPRPRPKVAPRP
shrunken log2 fold change: 0.458

RRIRIRPPRLPRPRPRPQDWPRP
shrunken log2 fold change: -0.344

RRIRIRPPRLPRPRPRPVQCPRP
shrunken log2 fold change: 0.0517

RRIRARPPRLPRPRPRPQDCPRP
shrunken log2 fold change: 0.0638

RRIRYRPPRLPRPRPRPRNWPRP
shrunken log2 fold change: -0.0364

RRIRWRPPRLPRPRPRPATLPRP
shrunken log2 fold change: -0.0879

RRIRSRPPRLPRPRPRPQTCPRP
shrunken log2 fold change: -0.0978

RRIRNRPPRLPRPRPRPNIAPRP
shrunken log2 fold change: -0.352
